Assay in all cases: purified protein, by the assay type
Common to all, as to settings: other: Wild-type RmlA, 10 mM glucose-1-phosphate, 0.05-25 μM enzyme, [NTP] + 5 mM MgCl2, 100 mM Tris-HCl pH 8.0, 37° C.

Data set [1] relates to Nc1nc2c(ncn2[C@H]2C[C@H](O)[C@@H](COP(=O)(O)OP(=O)(O)OP(=O)(O)O)O2)c(=O)[nH]1.
Protocol: (§1) In a typical reaction, sugar-1-phosphate (10 mM final) and enzyme (0.01-50 μM) were mixed with NTP (0.01-40 mM) in the presence of MgCl2 ([NTP]+5 mM) and 10 U/mL inorganic pyrophosphatase (Sigma, St. Louis, Mo., USA) in 100 mM Tris HCl, pH 8.0 (20 μL final volume). Typical reactions were analyzed after 10 min at 37° C. and reaction times were extended for some slow reacting sugar/NTP combinations. Reactions were stopped by the addition of 80 μL prewarmed HPLC buffer and heat inactivation (95° C., 5 min). The amount of enzyme used and the incubation time was adjusted so that the reactions never proceeded to more than 10% turnover for kinetics, or 30% for activity assays.
(§2) Kinetic Measurements—Pseudo first order kinetics were obtained by fixing glucose-1-phosphate at a saturating concentration of 10 mM (Barton et al. (2001) Nat Struct Biol 8, 545-551), and titrating NTPs. At least eight different concentrations in the range of ¼×KM to 4×KM (0.09-20 mM for dTTP, 0.2-40 mM for others) were assayed in triplicate. Reaction rates were confirmed to be linear over twice the incubation time. Activities were corrected for time and enzyme concentrations, and the kinetic curves were fit to the Michaelis-Menton equation using SigmaPlot with the Enzyme Kinetics module (SPSS, Chicago, Ill., USA).
The test system of data set [2] is Nc1ccn([C@@H]2O[C@H](COP(=O)(O)OP(=O)(O)OP(=O)(O)O)[C@@H](O)[C@H]2O)c(=O)n1.
Protocol: as §1, §2
For data set [3], the system named is Nc1nc2c(ncn2[C@@H]2O[C@H](COP(=O)(O)OP(=O)(O)OP(=O)(O)O)[C@@H](O)[C@H]2O)c(=O)[nH]1.
Protocol: as §1, §2
The test system of data set [4] is Nc1ncnc2c1ncn2[C@H]1C[C@H](O)[C@@H](COP(=O)(O)OP(=O)(O)OP(=O)(O)O)O1.
Protocol: as §1, §2
Data set [5] relates to O=c1ccn([C@@H]2O[C@H](COP(=O)(O)OP(=O)(O)OP(=O)(O)O)[C@@H](O)[C@H]2O)c(=O)[nH]1.
Protocol: as §1, §2
Data set [6] concerns Nc1ccn([C@H]2C[C@H](O)[C@@H](COP(=O)(O)OP(=O)(O)OP(=O)(O)O)O2)c(=O)n1.
Protocol: as §1, §2

This is an account of results in patent publication US8097443B2, “Nucleotidyltransferases with enhanced nucleotide triphosphate flexibility” (priority 2007, dated 2012).

A word on the Km: it is the substrate concentration at which the rate is half of its maximum. A word on the kcat: it is the number of substrate molecules converted per active site and unit of time at saturation. As for “wt RmlA (glucose-1-phosphate thymidylyltransferase) (Salmonella enterica subsp. enterica serovar Typhimurium str. LT2)”, the Michaelis constant (Km) came out at 3.7 ± 0.5 mM in data set [1]; 13.7 ± 1.1 mM in data set [2]; 8.5 ± 0.6 mM in data set [3]; 7.8 ± 0.9 mM in data set [4]; 4.6 ± 0.7 mM in data set [5]; 10.5 ± 1.1 mM in data set [6]. For the same substance, the kcat in data set [1] turned out to be 2.12 ± 0.083 s⁻¹; in data set [2] it was 0.0983 ± 0.0033 s⁻¹; in data set [3] it was 0.14 ± 0.0033 s⁻¹; in data set [4], 1.88 ± 0.083 s⁻¹; in data set [5] it was 41 ± 2.17 s⁻¹; in data set [6], 1.22 ± 0.05 s⁻¹.
